Laboratory results from patent US20150147278A1 (KINKI UNIVERSITY, published 2015).

Target: T1, human LAT1/CD98 complex (human, UniProt Q01650 1-507; P08195 2-529)
T1 construct: whole, on cells; Disulfide-bonded heterodimer, endogenous on human tumor cell lines (HCT116, NCI-H1944, A549, HeLa); No purified or transfected antigen was used; also called LAT1/CD98 complex protein; LAT1/4F2hc
Assay: flow cytometry on human tumor cell lines, antibody prepared at 40 µg/mL; reference LGtra01-01
Experimental: Using four types of human tumor cell lines, the anti-LAT1/CD98 monoclonal antibodies were measured for their binding ability by FCM analysis. The human tumor cell lines were each adjusted with PBS to 1×10⁵ cells/well and dispensed into tubes in 50 μL volumes. To this cell suspension, 50 μL of each monoclonal antibody prepared at 40 μg/mL was added and reacted at 4° C. for 45 minutes. After washing three times by addition of 0.1% BSA-PBS (100 μL) and the subsequent centrifugation at 500 g for 3 minutes at 4° C., the cell pellets were each supplemented with 50 μL of 200-fold diluted PE-labeled anti-rat IgG (Jackson Immuno Research) and reacted under light-shielded conditions at 4° C. for 45 minutes. After washing three times by addition of 0.1% BSA-PBS (100 μL) and the subsequent centrifugation at 500 g for 3 minutes at 4° C., the cells were suspended in PBS (500 μL) and then transferred to FCM tubes. PI (100 μL) was added immediately before measurement to remove dead cells, followed by measurement with a FACS calibur (Becton Dickinson).

T1 sequence (Q01650 whole entry, chain 1 of 2): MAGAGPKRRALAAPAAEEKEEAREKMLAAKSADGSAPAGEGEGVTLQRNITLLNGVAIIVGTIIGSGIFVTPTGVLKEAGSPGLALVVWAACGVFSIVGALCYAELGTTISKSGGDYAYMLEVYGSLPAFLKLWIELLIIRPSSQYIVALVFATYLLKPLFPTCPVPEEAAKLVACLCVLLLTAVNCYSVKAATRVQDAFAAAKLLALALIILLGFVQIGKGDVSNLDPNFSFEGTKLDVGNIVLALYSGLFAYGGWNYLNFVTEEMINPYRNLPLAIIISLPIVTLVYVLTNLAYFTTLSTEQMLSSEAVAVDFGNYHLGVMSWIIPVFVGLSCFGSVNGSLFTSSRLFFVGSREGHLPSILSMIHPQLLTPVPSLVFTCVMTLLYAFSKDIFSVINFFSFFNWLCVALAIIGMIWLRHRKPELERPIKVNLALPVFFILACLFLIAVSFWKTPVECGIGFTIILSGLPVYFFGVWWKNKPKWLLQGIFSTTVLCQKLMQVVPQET
T1 sequence (P08195 103-630, chain 2 of 2): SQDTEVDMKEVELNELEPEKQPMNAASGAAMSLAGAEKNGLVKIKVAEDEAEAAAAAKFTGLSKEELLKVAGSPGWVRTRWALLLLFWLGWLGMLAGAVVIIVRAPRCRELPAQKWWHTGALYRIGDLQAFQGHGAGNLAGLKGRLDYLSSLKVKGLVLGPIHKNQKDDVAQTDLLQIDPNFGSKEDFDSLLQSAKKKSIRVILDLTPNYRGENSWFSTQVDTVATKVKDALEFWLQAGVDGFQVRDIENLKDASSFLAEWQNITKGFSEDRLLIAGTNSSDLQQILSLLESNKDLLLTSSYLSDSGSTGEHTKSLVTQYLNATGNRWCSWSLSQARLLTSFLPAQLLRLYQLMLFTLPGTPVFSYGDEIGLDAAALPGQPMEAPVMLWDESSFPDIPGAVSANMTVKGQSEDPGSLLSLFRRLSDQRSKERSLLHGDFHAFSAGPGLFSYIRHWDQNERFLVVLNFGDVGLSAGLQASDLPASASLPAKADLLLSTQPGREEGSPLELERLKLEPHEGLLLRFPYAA

| Binder | fold higher binding activity than LGtra01-01 monoclonal antibody [fold] |
| --- | --- |
| LG9112 monoclonal antibody (antibody, V domains shown, Rat monoclonal antibody from a hybridoma, purified from ascites with Protein G and detected with anti-rat IgG; also called anti-LAT1/CD98 monoclonal antibody) VH: QMQLKESGPGLVQPSQTLSLTCAVSGFSLPTSSVSWIRQSPGKGLEWMGVIWSNGNTDYSSRFKSRLSISRDTAKSQVFLKMNSLQAEDTAMYFCARNFRNDPGVMDAWGQGASVTVSS VL: NIVMTQSPKSMSISVGDRVTMNCKASQNVGNNVAWYQQKPGLSPKLLISYASSRHTGVPDRFTGRGSGADFTLTINGVQAEDAAFYYCQRVYKSPYTFGGGTKLELKR | ≥ 10 |
| LG9113 monoclonal antibody (antibody, V domains shown, Rat monoclonal antibody from a hybridoma, purified from ascites with Protein G and detected with anti-rat IgG; also called anti-LAT1/CD98 monoclonal antibody) VH: QMQLKESGPGLVQPSQTLSLTCAVSGFSLPTSSVSWIRQSPGKGLEWMGVIWSNGNTDYSSRFKSRLSISRDTAKSQVFLKMNSLQTEDTAMYFCARNFRNDPGVMDAWGQGASVTVSS VL: NIVMTQSPKSMSISVGDRVTMNCKASQTVGNNVAWYQQKPGLSPKLLISYASSRHTGVPDRFTGRGSGADFTLTINGVQAEDAAFYYCQRVYKSPYTFGGGTKLELKR | ≥ 10 |
| LG9114 monoclonal antibody (antibody, V domains shown, Rat monoclonal antibody from a hybridoma, purified from ascites with Protein G and detected with anti-rat IgG; also called anti-LAT1/CD98 monoclonal antibody) VH: QMQLKESGPGLVQPSQTLSLTCAVSGFSLPTSSVSWIRQSPGKGLEWMGVIWSNGNTDYSSRIKSRLSISRDTSKSQVFLKMNSLQTEDTAMYFCARNFRNNPGVMDAWGQGASVTVSS VL: NIVMTQSPKSMSISVGDRVTMNCKASQNVGNNVAWYQQKPGLSPKLLIYYASSRHTGVPDRFTGSGSGADFTLTINSVQAEDAAFYYCQRVYKSPYTFGGGTKLELKR | ≥ 10 |
| LG9111 monoclonal antibody (antibody, V domains shown, Rat monoclonal antibody from a hybridoma, purified from ascites with Protein G and detected with anti-rat IgG; also called anti-LAT1/CD98 monoclonal antibody) VH: QLQLKESGPGLVQPSQTLSLTCTVSGFSLPTSSVSWIRQPPGKGLEWMGVIWSNGNTDYSSAIKSRLSISRDTSKSQVFLKMNSLQTEDTARYFCARNFRNDPGVMDAWGQGASVTVSS VL: NIVMTQSPRSMSLSGGDRVTMNCRASQNVGNNVAWYQQRPGQSPKLLISYASNRNTGVPGRFTGSGSGTDFTLTISSVQAEDAAFYYCQRIYKSPYTFGGGTKLELKR | ≥ 10 |
